# Laboratory results from article PMC11321042, “An invariant C-terminal tryptophan in McdB mediates its interaction and positioning function with carboxysomes” (Molecular Biology of the Cell, 2024).
# B1: Maintenance of carboxysome distribution protein B (McdB) from Synechococcus elongatus PCC 7942, wild type (natural protein, UniProt Q8GJM6 1-152, looked up)
# chain: MTDAFDRLKKRSRTPIAREGSLTTGPELSDRPLQLLPREFETFCDRYAVHAGDVIEAALDLVLLDPDLQQRLLQRLRQGNGSDRVWLGTACPRSWQQQLQQQAQDQGLSEADLLQEAIAQRLDLVLGQTTLREEVTLLRQELDQLKRKLHGW
# notes: McdB of Synechococcus elongatus PCC 7942; also called Se McdB; β-McdB; source: E. coli BL21-AI, purified (HisTrap, Ulp1 cleavage, SEC); not shown: His-SUMO, N-terminal, cleaved
# B2: Se McdB[∆W152] (natural protein, Synechococcus elongatus PCC 7942, UniProt Q8GJM6 1-152, looked up)
# chain: MTDAFDRLKKRSRTPIAREGSLTTGPELSDRPLQLLPREFETFCDRYAVHAGDVIEAALDLVLLDPDLQQRLLQRLRQGNGSDRVWLGTACPRSWQQQLQQQAQDQGLSEADLLQEAIAQRLDLVLGQTTLREEVTLLRQELDQLKRKLHG
# notes: McdB of Synechococcus elongatus PCC 7942 with the final C-terminal tryptophan W152 deleted; Parent is m1; source: E. coli BL21-AI, purified (HisTrap, Ulp1 cleavage, SEC); not shown: His-SUMO, N-terminal, cleaved
# Biological target: the molecule itself
# Assay: SEC-MALS; 50 µl at 1.5 mg/ml on a Shodex PROTEIN KW-804 column, 0.4 ml/min, 150 mM KCl, 20 mM Tris-HCl pH 8.2
row,Protein,stoichiometry N
1,B1,6
2,B2,6
